Laboratory results from publication PMC12056208.
Read-outs that look alike come from different tables or passages of the source.

B1: Microhomology DNA for Pol mu (dsDNA)
DNA 1: GGTGCAGCACAGTGC
DNA 2: ACTGTGCTGCACC
DNA 3: GACTGCACGGCAGC
DNA 4: GCCGTGCAGTC
B2: Y-shaped 42-55 DNA (dsDNA)
DNA 1: CGCGCCCAGCTTTCCCAGCTAATAAACTAAAAACTATTATTATGGCCGCACGCGT
DNA 2: ACGCGTGCGGCCATAATAATAGTTTTTAGTTTATTGGGCGCG
modifications: 5' biotin on strand 1

Experiments:
[1] = target: T1, Ku70;Ku80;DNA polymerase mu (Homo sapiens?;Homo sapiens?;Homo …, UniProt P12956;P13010;Q9NP87 1-609;1-732;1-494, ||); details: protein: recombinant;recombinant;recombinant; copies: 1;1;1; two duplexes: S3/S6 13 bp with 3' overhang GC on S3; S5/S4 11 bp with 3' overhang AGC on S5; GC microhomology between overhangs
[2] = target: T1, Ku70;Ku80;DNA polymerase mu; details: protein: recombinant;recombinant;recombinant; copies: 1;1;1; label: biotin; fork: 35 bp duplex (1:21-55 with 2:1-35), 5' tail 20 nt on strand 1, 3' tail 7 nt on strand 2; the tail ends (1:1-7, 2:36-42) are also complementary
Ku70;Ku80 = Ku70;Ku80 (Homo sapiens?;Homo sapiens?, UniProt P12956;P13010 1-609;1-732, |); details: protein: recombinant;recombinant; copies: 1;1; label: biotin; fork: 35 bp duplex (1:21-55 with 2:1-35), 5' tail 20 nt on strand 1, 3' tail 7 nt on strand 2; the tail ends (1:1-7, 2:36-42) are also complementary
[3] = target: Ku70;Ku80;DNA polymerase lambda (Homo sapiens?;Homo sapiens?;Homo …, UniProt P12956;P13010;Q9UGP5 1-609;1-732;1-575, ||); details: protein: recombinant;recombinant;recombinant; copies: 1;1;1; label: biotin; fork: 35 bp duplex (1:21-55 with 2:1-35), 5' tail 20 nt on strand 1, 3' tail 7 nt on strand 2; the tail ends (1:1-7, 2:36-42) are also complementary
Chain of Ku70;Ku80;DNA polymerase lambda (P12956 whole entry, chain 1 of 3): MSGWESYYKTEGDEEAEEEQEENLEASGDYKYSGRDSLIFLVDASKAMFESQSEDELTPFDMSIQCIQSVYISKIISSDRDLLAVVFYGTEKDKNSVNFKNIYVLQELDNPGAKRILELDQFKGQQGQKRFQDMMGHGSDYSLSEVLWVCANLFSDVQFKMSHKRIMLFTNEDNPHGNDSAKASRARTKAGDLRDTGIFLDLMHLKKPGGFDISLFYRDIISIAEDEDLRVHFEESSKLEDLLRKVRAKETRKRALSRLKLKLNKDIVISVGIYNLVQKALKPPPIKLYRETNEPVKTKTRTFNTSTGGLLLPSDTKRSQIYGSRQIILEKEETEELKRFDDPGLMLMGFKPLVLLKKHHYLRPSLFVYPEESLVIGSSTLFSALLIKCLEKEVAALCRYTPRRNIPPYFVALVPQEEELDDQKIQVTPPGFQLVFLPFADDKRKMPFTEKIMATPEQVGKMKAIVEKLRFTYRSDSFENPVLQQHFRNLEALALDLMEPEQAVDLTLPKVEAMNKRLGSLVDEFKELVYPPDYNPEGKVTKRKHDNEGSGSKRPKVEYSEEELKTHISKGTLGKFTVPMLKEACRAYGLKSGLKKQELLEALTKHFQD
Chain of Ku70;Ku80;DNA polymerase lambda (P13010 whole entry, chain 2 of 3): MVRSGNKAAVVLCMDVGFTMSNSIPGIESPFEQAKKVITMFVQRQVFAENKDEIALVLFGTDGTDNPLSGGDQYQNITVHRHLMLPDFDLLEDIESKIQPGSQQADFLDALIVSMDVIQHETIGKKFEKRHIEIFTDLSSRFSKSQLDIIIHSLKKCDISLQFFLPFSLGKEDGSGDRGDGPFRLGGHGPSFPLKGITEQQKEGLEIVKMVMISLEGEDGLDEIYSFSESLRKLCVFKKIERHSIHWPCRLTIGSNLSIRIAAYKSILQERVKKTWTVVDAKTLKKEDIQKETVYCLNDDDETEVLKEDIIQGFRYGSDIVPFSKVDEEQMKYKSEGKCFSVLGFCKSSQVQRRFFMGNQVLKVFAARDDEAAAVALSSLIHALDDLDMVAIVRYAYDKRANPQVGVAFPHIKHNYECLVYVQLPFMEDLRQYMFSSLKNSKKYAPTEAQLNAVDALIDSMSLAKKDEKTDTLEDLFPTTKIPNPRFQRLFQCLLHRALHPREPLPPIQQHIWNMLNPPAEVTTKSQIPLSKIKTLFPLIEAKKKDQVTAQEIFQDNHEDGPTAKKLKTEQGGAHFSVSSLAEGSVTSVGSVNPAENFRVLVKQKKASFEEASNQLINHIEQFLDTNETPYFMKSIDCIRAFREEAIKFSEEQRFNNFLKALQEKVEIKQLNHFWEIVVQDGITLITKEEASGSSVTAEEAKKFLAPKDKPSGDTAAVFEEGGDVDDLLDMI
Chain of Ku70;Ku80;DNA polymerase lambda (Q9UGP5 whole entry, chain 3 of 3): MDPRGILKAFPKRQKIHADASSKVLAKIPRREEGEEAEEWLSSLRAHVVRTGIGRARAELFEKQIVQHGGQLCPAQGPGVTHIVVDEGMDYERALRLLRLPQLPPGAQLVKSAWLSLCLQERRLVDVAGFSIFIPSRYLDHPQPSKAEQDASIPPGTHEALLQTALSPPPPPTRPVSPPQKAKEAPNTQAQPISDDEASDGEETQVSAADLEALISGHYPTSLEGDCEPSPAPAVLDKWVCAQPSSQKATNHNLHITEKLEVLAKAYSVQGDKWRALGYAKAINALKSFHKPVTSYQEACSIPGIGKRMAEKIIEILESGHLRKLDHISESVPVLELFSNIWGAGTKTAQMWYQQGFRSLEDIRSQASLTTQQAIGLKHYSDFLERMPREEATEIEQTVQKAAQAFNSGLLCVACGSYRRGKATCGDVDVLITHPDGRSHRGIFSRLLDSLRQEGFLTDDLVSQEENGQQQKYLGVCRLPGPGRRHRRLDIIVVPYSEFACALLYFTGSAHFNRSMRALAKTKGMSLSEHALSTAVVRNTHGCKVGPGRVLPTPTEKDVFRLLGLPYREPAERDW

T1 sequence (P12956 whole entry, chain 1 of 3): as the sequence (P12956 whole entry, chain 1 of 3) above
T1 sequence (P13010 whole entry, chain 2 of 3): as the sequence (P13010 whole entry, chain 2 of 3) above
T1 sequence (Q9NP87 whole entry, chain 3 of 3): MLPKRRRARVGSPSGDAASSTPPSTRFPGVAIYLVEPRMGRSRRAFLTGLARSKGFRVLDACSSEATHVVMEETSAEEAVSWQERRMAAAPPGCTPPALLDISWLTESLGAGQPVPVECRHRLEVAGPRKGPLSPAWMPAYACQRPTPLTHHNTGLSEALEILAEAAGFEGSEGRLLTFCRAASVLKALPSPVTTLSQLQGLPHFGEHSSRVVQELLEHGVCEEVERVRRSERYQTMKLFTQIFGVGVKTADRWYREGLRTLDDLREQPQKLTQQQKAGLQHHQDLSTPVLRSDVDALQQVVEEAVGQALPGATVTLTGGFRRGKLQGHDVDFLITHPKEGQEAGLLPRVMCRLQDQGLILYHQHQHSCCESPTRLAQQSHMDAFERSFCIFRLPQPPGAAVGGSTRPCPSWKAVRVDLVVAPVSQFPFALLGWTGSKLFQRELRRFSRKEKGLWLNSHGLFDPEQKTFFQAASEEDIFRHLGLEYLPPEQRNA
Chain of Ku70;Ku80 (P12956 whole entry, chain 1 of 2): as the sequence (P12956 whole entry, chain 1 of 3) above
Chain of Ku70;Ku80 (P13010 whole entry, chain 2 of 2): as the sequence (P13010 whole entry, chain 2 of 3) above

Binder | binding result [1] | binding result [2] | binding result (Ku70;Ku80) | binding result [3]
B1 | binds |  |  | 
B2 |  | binds | binds | binds
